This series has as its system MS2 coat protein. The series is described as follows: apparent KD of MS2 coat protein; designed switch direction (-1 OFF switch, 1 ON switch): -1; higher = weaker reporter binding. An outline of the steps:
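The apparent KD reported per design is the median over clusters of curve fits to normalised cluster fluorescence. The RNA switches were transcribed on Illumina chips by stalled E. coli RNA polymerase. SNAP-549-labelled MS2 coat protein was titrated from 0.7 or 1.5 nM, doubling up to 3 µM, in Tris-HCl pH 7.5 buffer containing KCl, MgCl2, BSA, DTT, tRNA and Tween-20, with no input, 200 uM small-molecule ligand, or an oligonucleotide input.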

The mark [1] stands for this setting: input ligand: microRNA oligo, concentration not stated.
[2] abbreviates: Eterna round: R95, input ligand: FMN 200 uM.
The mark [3] stands for this setting: Eterna round: R95, input ligand: microRNA oligo, concentration not stated.
Where [4] appears, read: Eterna round: R95, input ligand: none.

On to “UUGUAGUGAGGAUAUAUAUAGAGGUUUUAUUAAUUUUUAAAACUUGAGGAUCACCCAAGUAGAAGGCGCAAAGU [JR_Ex2_Sub071] (Eterna round: R97, puzzle: Exclusion 2)”, for which the “apparent KD of MS2 coat protein” value (input ligand: FMN 200 uM) was 41.5 nM and the “apparent KD of MS2 coat protein” value (input ligand: none) stood at 39.9 nM.

For “UUGUUAUAUGUAGGAUAUGCGUAUUAUUAUUAGGCAGAAGGACAUGAGGAUCACCCAUGUAUGUUGUUGUUAUAUAUUAUAUAU [Title] (Eterna round: R96, puzzle: Exclusion NG 1)”, under setting [1], the “apparent KD of MS2 coat protein” value came out at 20.6 nM.

Regarding “UUGUUAUAUGUAGGAUAUGCGUAUUAUUAUUGGGCAGAAGGACAUGAGGAUCACCCAUGUAUGUUGUUGUUAUAUAUUAUAUAU [Title] (Eterna round: R96, puzzle: Exclusion NG 1)”, the “apparent KD of MS2 coat protein” value is 47.2 nM (input ligand: FMN 200 uM), 34 nM under setting [1] and 44.4 nM (input ligand: none).

With “UUGUUAUAUGUAGGAUAUGCGUGUUAUUAUUAUGCAGAAGGACAUGAGGAUCACCCAUGUGUAUUAUUAUUAUAUAUUAUAUAU [Title] (Eterna round: R96, puzzle: Exclusion NG 1)”, the “apparent KD of MS2 coat protein” value under setting [1] came out at 15.4 nM.

Turning to “UUGUUAUGUGUAGGAUAUGCAUAUUAUUAUUAUGCAGAAGGACAUGAGGAUCACCCAUGUAUAUUAUUAUUAUAUAUUAUAUAU [Title] (Eterna round: R96, puzzle: Exclusion NG 1)”, the “apparent KD of MS2 coat protein” value under setting [1] came to 21.9 nM.

As to “UUGUUGUAUGUAGGAUAUGCAUAUUAUUAUUAUGCAGAAGGACAUGAGGAUCACCCAUGUGUAUUAUUAUUAUAUAUUAUAUAU [Title] (Eterna round: R96, puzzle: Exclusion NG 1)”, under setting [1], the “apparent KD of MS2 coat protein” value was found to be 20 nM.

“UUUAAACAUGAGGAUCACCCAUGUGAGGAUAUACGAAUGCAGACACACACGGAUGCAAGUAGAAGGCACAACGC [Design #11] (Eterna round: R97, puzzle: Exclusion 1)”: the “apparent KD of MS2 coat protein” value came to 29.4 nM (input ligand: FMN 200 uM) and 25 nM (input ligand: none).

In the case of “UUUAAGGUAAUUAAGAUCACAUGAGGAUCACCCAUGUAUAUAUAGGAUAUCAGCUCGUUUAGAGCUGAGAAGGAUAUAUACAUA [ExNG3/6-C2] (Eterna round: R96, puzzle: Exclusion NG 3)”, the “apparent KD of MS2 coat protein” value reads like this: (input ligand: FMN 200 uM) 21.6 nM; under setting [1], 178 nM; (input ligand: none) 136 nM.

Turning to “UUUAAUUUUUUUUUUUUACAAGCUUUUUGCUCGUCUUAUACAUGAGGAUCACCCAUGUAGGUGAAGAGUAAAUUAUC [JMF 58] (puzzle: Sensor v3, turn-off variant 2)”, the “apparent KD of MS2 coat protein” value is, setting by setting: under setting [2], 19.4 nM; under setting [3], 109 nM; under setting [4], 16.5 nM.

In the case of “UUUAAUUUUUUUUUUUUACAAGCUUUUUGCUCGUCUUAUACAUGAGGAUCACCCAUGUGGGUAAGGGAUAAAUUAUC [JMF 37] (Eterna round: R96, puzzle: Sensor v3, turn-off variant 2)”, the “apparent KD of MS2 coat protein” value came to 65.4 nM (input ligand: FMN 200 uM), 51.8 nM under setting [1] and 59 nM (input ligand: none).

As to “UUUAAUUUUUUUUUUUUACAAGCUUUUUGCUCGUCUUAUACAUGAGGAUCACCCAUGUGGGUAAGGGAUAAAUUAUC [JMF 37] (puzzle: Sensor v3, turn-off variant 2)”, the “apparent KD of MS2 coat protein” value runs as follows: under setting [2], 28.5 nM; under setting [3], 33.4 nM; under setting [4], 35.3 nM.

In the case of “UUUAAUUUUUUUUUUUUACAAGCUUUUUGCUCGUCUUAUACAUGAGGAUCACCCAUGUGGGUAGGAGAUAAAUUAUC [JMF 16] (puzzle: Sensor v3, turn-off variant 2)”, the “apparent KD of MS2 coat protein” value runs as follows: under setting [2], 32.1 nM; under setting [3], 45.4 nM; under setting [4], 57 nM.

Regarding “UUUACAAGCUUAAGAUCCCACAUGAGGAUCACCCAUGUUCCUGGCCGUGAGGCUAGGUAAACUUAUGCUCGUCUUAU [JL TOV1 3.68] (Eterna round: R97, puzzle: Sensor, turn-off variant 1)”, the “apparent KD of MS2 coat protein” value (input ligand: FMN 200 uM) was determined as 141 nM and the “apparent KD of MS2 coat protein” value (input ligand: none) was found to be 138 nM.

Regarding “UUUACAAGCUUUUGAUCCCACAUGAGGAUCACCCAUGUUGCUGCCGUGAGGUAGCUUUUAACAAAUGCUCGUCUUAU [JL TOV1 3.37] (Eterna round: R97, puzzle: Sensor, turn-off variant 1)”, the “apparent KD of MS2 coat protein” value was 590 nM (input ligand: FMN 200 uM) and 690 nM (input ligand: none).

“UUUAGUCGUGACAUGGGUGACAUGAGGAUCACCCAUGUCACAAGCUUCUCGCUCGUCUUAUAAUUAACCCAUGUCAC [LRO Sensor-off var1-14 mod of Stov1-13-A1 by Brourd] (Eterna round: R97, puzzle: Sensor, turn-off variant 1)”: the “apparent KD of MS2 coat protein” value by setting is: (input ligand: FMN 200 uM) 18.6 nM; (input ligand: none) 19.8 nM.

“UUUAGUCGUGACAUGGGUGACAUGAGGAUCACCCAUGUUACAAGCUUGUUGCUCGUCUUAUAAUUAACCCAUGUCAC [LRO Sensor-off var1-16 mod of Stov1-13-A1 by Brourd] (Eterna round: R97, puzzle: Sensor, turn-off variant 1)”: the “apparent KD of MS2 coat protein” value was 13.5 nM (input ligand: FMN 200 uM) and 17.2 nM (input ligand: none).

With “UUUAGUUCAGGAUAUGAUGAAUUAAACAUGAGGAUCACCCAUGUAGAUCCUGAAUUAACAUCAGAAGGGAAUAUUU [JL-ex5-4.47 Brourd mod] (Eterna round: R97, puzzle: Exclusion 5)”, the “apparent KD of MS2 coat protein” value by setting is: (input ligand: FMN 200 uM) 15.1 nM; (input ligand: none) 13.7 nM.

Take “UUUAGUUCAGGAUAUGUAGAUUUAAACAUGAGGAUCACCCAUGUAAAUCCUGAUCCUGCUACAGAAGGGAACAUUU [Mat - Exclusion 5 - Eli Mod - D11] (Eterna round: R97, puzzle: Exclusion 5)”: the “apparent KD of MS2 coat protein” value is, setting by setting: (input ligand: FMN 200 uM) 16.6 nM; (input ligand: none) 12.7 nM.

Consider “UUUCCACAUGAGGAUCACCCAUGUCAGGAUAUCUCCACAUCUUCGGAUGUGGCGUGUUAGAGAAGGGACAUGUA [EX1 A.22] (Eterna round: R97, puzzle: Exclusion 1)”, for which the “apparent KD of MS2 coat protein” value reads like this: (input ligand: FMN 200 uM) 104 nM; (input ligand: none) 33.7 nM.

“UUUCUCUGUGUGAGGAUAUACUUGUUUGGGUUUUUGUAGAAGGCACAUGAGGAUCACCCAUGUAUUUUGUCGUG [JR_BME4_Sub019] (puzzle: Brourd's mod of Exclusion 4)”: the “apparent KD of MS2 coat protein” value under setting [3] turned out to be 31.5 nM.

With “UUUGCAAGCUUUUGAUCCCACAUGAGGAUCACCCAUGUUGCUGCCGUGAGGUAGCAUUUAACAAAUGCUCGUCUUAU [JL TOV1 3.53] (Eterna round: R97, puzzle: Sensor, turn-off variant 1)”, the “apparent KD of MS2 coat protein” value stood at 555 nM (input ligand: FMN 200 uM) and 762 nM (input ligand: none).

Consider “UUUGUACAUGAGGAUCACCCAUGUCAGGAUAUGUCAUCGCCGUUUCCCAGCCGGCGUCACAGAAGGGACAUGCA [EX1 C.5] (Eterna round: R97, puzzle: Exclusion 1)”, for which the “apparent KD of MS2 coat protein” value by setting is: (input ligand: FMN 200 uM) 56.6 nM; (input ligand: none) 26.2 nM.

“UUUUAACAUGAGGAUCACCCAUGUAAGGAUAUGCUAUUUUUUUUUUUUUUUUUUUUUUGCAGAAGGUACAUUUU [My solution] (puzzle: Exclusion 1)”: the “apparent KD of MS2 coat protein” value is 33.8 nM under setting [2], 21.3 nM under setting [3] and 21.6 nM under setting [4].

In the case of “UUUUAACAUGAGGAUCACCCAUGUGAGGAUAUCGAAAUUUAUAUUAAUAUUUAUAAAUCGAGAAGGCACAUUUU [JMF 52] (puzzle: Exclusion 1)”, the “apparent KD of MS2 coat protein” value under setting [3] is 139 nM.

Turning to “UUUUAACAUGAGGAUCACCCAUGUGAGGAUAUCGAAAUUUAUAUUAAUAUUUAUAUUUCGAGAAGGCACAUUUU [JMF 57] (puzzle: Exclusion 1)”, the “apparent KD of MS2 coat protein” value under setting [3] was 153 nM.

As for “UUUUAACAUGAGGAUCACCCAUGUGAGGAUAUCGAAAUUUUUAUUAAUAUUAAUAAAACGAGAAGGCACAUUUU [JMF 12] (puzzle: Exclusion 1)”, under setting [3], the “apparent KD of MS2 coat protein” value was determined as 58.3 nM.

Consider “UUUUAACAUGAGGAUCACCCAUGUGAGGAUAUCGUAUUUUAUAUUAAUAUUAAUAAAACGAGAAGGCACAUUUU [JMF 9] (puzzle: Exclusion 1)”, for which the “apparent KD of MS2 coat protein” value came to 28.4 nM under setting [2], 25.4 nM under setting [3] and 29.5 nM under setting [4].

Consider “UUUUAACAUGAGGAUCACCCAUGUGAGGAUAUGAUUUUUUUUUUUUUUUUUUUUUUUUUCAGAAGGCACAUUUU [My solution] (puzzle: Exclusion 1)”, for which the “apparent KD of MS2 coat protein” value was determined as 18 nM under setting [2], 64.3 nM under setting [3] and 42.4 nM under setting [4].

For “UUUUACUCAGGAUAUAUGAUGUGAAACAUGAGGAUCACCCAUGUAAUAUUAUGGAUGUAAAUAGAAGGGAGAUUUA [Mat - Exclusion 5 - JL mod - D16] (puzzle: Exclusion 5)”, the “apparent KD of MS2 coat protein” value is 46.4 nM under setting [2], 45.5 nM under setting [3] and 59.5 nM under setting [4].

As to “UUUUAGAGAGGAUAUAUAUAGUGAAACAUGAGGAUCACCCAUGUAAUUAUAUGGAUGUAAAUAGAAGGCUCAUUUA [JL-ex5-3.02] (puzzle: Exclusion 5)”, the “apparent KD of MS2 coat protein” value under setting [2] came out at 35.7 nM, the “apparent KD of MS2 coat protein” value under setting [3] came to 31.1 nM and the “apparent KD of MS2 coat protein” value under setting [4] stood at 30.7 nM.

With “UUUUAGAGAGGAUAUAUUUAGUGAAACAUGAGGAUCACCCAUGUAAUUAAAUGGAUGUAAAUAGAAGGCUCAUUUA [Mat - Exclusion 5 - JL mod - D6] (puzzle: Exclusion 5)”, the “apparent KD of MS2 coat protein” value runs as follows: under setting [2], 22.9 nM; under setting [3], 23.7 nM; under setting [4], 26.4 nM.

Turning to “UUUUAGGUAGGAUAUACAUUUUUUUUAUUAUCCUCAUUAUUACAUGAGGAUCACCCAUGUAGAAGGACCAUUUU [My Design] (puzzle: Exclusion 2)”, the “apparent KD of MS2 coat protein” value under setting [3] turned out to be 181 nM.

(Values after the supplement of paper PMC9170038.)
